B1: ZNF207 motif WT (dsDNA)
DNA 1: TTTGAAACACTCTTTTTGTAG
DNA 2: CTACAAAAAGAGTGTTTCAAA
B2: ZNF207 motif MUT (dsDNA)
DNA 1: TTTTAAACACGCGTGTGTTAG
DNA 2: CTAACACACGCGTGTTTAAAA

Target: ZNF207 isoform C (human, UniProt O43670-4 1-494)
Test: EMSA; 100 ng protein, 3 ng probe, 1 ug poly(dI-dC), 10 mM MgCl2; 10 mM HEPES pH 7.5, 10 mM KCl, 10 mM MgCl2, 1 mM DTT, 1 mM EDTA, 10% glycerol, 1 ug poly(dI-dC) in 10 ul, 10 min at room temperature; 5% native PAGE in 0.5x TBE
Settings: protein: commercial; label: 5' biotin on sense strand; duplex of annealed sense and reverse strands

ZNF207 isoform C, sequence (O43670 other isoform, or with tags, fused parts or gaps): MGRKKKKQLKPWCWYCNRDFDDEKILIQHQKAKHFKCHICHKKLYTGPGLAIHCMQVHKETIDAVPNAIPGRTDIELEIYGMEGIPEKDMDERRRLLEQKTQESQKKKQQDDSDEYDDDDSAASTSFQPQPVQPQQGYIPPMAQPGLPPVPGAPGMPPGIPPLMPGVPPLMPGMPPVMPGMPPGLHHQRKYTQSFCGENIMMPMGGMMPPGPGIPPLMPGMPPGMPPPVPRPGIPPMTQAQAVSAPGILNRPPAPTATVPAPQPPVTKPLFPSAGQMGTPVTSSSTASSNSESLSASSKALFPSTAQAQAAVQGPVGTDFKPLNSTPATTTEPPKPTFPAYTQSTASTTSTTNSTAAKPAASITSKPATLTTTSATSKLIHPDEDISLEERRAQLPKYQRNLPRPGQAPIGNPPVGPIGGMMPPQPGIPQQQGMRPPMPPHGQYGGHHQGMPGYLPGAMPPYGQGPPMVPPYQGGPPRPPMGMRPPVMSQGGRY

| Binder | binding result |
| --- | --- |
| B1 | binds |
| B2 | no binding |

— publication PMC6197280, “A distinct isoform of ZNF207 controls self-renewal and pluripotency of human embryonic stem cells”
